Publication PMC11192315 (PLOS Pathogens, 2024)

B1: JH-8B (human IgG mAb) (antibody, V domains shown)
VH: EVQLVESGGGLIQPGGSLRLSCAASGVTVSSNYMSWVRQAPGKGLEWISLIYSGGSTYYADSVKGRFTISRDNSKNTLYLQMNSLRAEDTAVYYCARELDIVGATDIWGQGTMVTVSS
VL: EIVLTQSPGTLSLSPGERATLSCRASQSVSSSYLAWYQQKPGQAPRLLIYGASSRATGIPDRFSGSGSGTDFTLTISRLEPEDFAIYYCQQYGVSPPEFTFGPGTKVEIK
B2: FI-3A (Class 1 human mAb) (antibody, V domains shown)
VH: EVQLLESGGGLIQPGGSLRLSCAASGFTVSSNYMSWVRQAPGKGLEWVSVIYSGGSTYYADSVKGRFTISRDNSKNTLYLQMNSLRAEDTAVYYCARDHVRPGMNIWGQGTMVTVSS
VL: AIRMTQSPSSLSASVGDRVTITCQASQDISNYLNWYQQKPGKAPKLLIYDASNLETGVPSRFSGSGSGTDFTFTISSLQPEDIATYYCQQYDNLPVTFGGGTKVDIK
B3: FD-11A (Class 3 human mAb) (antibody, V domains shown)
VH: EVQLVESGGGVVQPGRSLRLSCAASGFTFSSYGMHWVRQAPGKGLEWVAVIWYDGSNKYYADSVKGRFTISRDNSKNTLYLQMNSLRAEDTAVYYCAKGPDILTGYYNYYYYGMDVWGQGTMVTVSS
VL: QSVLTQPPSVSGAPGQRVTISCTGSSSNIGAGYDVHWYQQLPGTAPKLLIYGNSNRPSGVPDRFSGSKSGTSASLAITGLQAEDEADYYCQSYDSSLSGFYVVFGGGTKLTVL
B4: JE-5C (human IgG mAb) (antibody, V domains shown)
VH: EVQLLESGGGLVQPGGSLRLSCAASGVTVTSNYMSWVRQAPGKGLEWVSVIYSGGSTYYADSVKGRFTISRHNSKNTLYLQMNSLRAEDTAVYYCARDLREAGGMDVWGQGTTVTVSS
VL: DIVMTQSPSSLSASVGDRVTITCQASQDINNYLNWYQQKPGKAPKLLIYDASNLETGVPSRFSGSGSGTDFTFTISSLQPEDIATYYCQQFDNLPWTFGQGTKVEIR
B5: JM-1A (human IgG mAb) (antibody, V domains shown)
VH: QVQLQQSGPGLVKPSGTLSLTCAVSGASISSGDWWSWVRQSPGRGLEWIGGIFHSGTTNYSPSLKSRVTMSVDQPKNQFSLHLTSVTAADTAVYYCARMRGIFDYWGQGTLVTVSS
VL: DIQLTQSPSSLSVSVGDRVTITCRASQAISNSLAWYQQKPGKAPKLLLYAASTLESGVPSRFSGSGSGTDFTLTISSLQPEDFATYYCQHYYSTPFFGGGTKVEIK
B6: C121 (Class 2 human mAb) (antibody, V domains shown)
VH: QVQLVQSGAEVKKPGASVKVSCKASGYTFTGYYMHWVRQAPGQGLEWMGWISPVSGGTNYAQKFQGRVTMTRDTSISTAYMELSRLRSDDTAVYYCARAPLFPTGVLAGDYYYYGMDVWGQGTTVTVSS
VL: QSALTQPASVSGSPGQSITISCTGTSSDVGSYNLVSWYQQHPGKAPKLMIYEGSKRPSGVSNRFSGSKSGNTASLTISGLQAEDEADYYCCSYAGSSTLVFGGGTKLTVL
B7: JL-8C (human IgG mAb) (antibody, V domains shown)
VH: QVQLVQSGAEVKKPGESLKISCKGSGYSFTSHWIGWVRQKPGKGLEWVGIIHPYDSDTRYSPSFQGLVTFSADKSSSTAYLQWSSLQASDTAIYYCARRTDQYGSHGMDVWGQGTTVTVSS
VL: QSVLTQPPSASGTPGQRVTISCSGGSSNIGGNPVNWYQQLPATAPKLLIYNNNQRPSGVSDRFSGSKSGTSASLAISGLQSVDEADYFCAAWDDSLNGVLFGGGTKLTVL
B8: IY-2A (Class 4 human mAb) (antibody, V domains shown)
VH: QVQLVEWGAGLLKPSETLSLTCAVYGGSFSGYYWSWIRQPPGKGLEWIGLINHSGSTNYNPSLKSRVTISLDTSKNQFSLKLTSVTAADTAVYYCARGLGIFGVVTLSDVWGQGTTVTVSS
VL: NFMLTQPHSVSESPGKTVTISCTGSSGSIASNYVQWYQQRPGSAPTTVIYEDNQRPSGVPDRFSGSIDSSSNSASLTISGLRTEDEADYYCQSYDSGIWVFGGGTKLTVL
B9: JE-5C Fab (Fab, V domains shown)
VH: B4 VH
VL: B4 VL
B10: JM-1A Fab (Fab, V domains shown)
VH: B5 VH
VL: B5 VL

molecular target: T1, SARS-CoV-2 RBD, wild type (Wuhan-Hu-1) (SARS-CoV-2, UniProt P0DTC2); experiment: cell-based or functional assay; conditions: not given

Question: B1 was tested. Which “IC50, neutralisation of pseudotyped lentivirus with WT spike” value did it give?
Answer: 9 ng/mL

molecular target: T1, SARS-CoV-2 RBD, wild type (Wuhan-Hu-1); experiment: ELISA; conditions: both partners purified

Question: Does B2 bind?
Answer: binds

Question: Does B3 bind?
Answer: binds

Question: Does B4 bind?
Answer: binds

Question: Does B5 bind?
Answer: binds

Question: Does B6 bind?
Answer: binds

Question: Does B7 bind?
Answer: binds

Question: Does B8 bind?
Answer: binds

molecular target: RBD domain (333-530) of SARS-CoV-2 WT Spike (SARS-CoV-2, UniProt P0DTC2); experiment: crystal structure; conditions: both partners purified

Question: Does B9 bind?
Answer: binds

Question: Does B10 bind?
Answer: binds
